Where two headings read alike, the source gives them in different places.
Columns and labels:
[1] = biological target: T1, human MET (exon14 skip mutation) on NCI-H596 cells (human, UniProt P08581 25-1390); assay: cell-based or functional assay
human MET on cells [2] = biological target: T2, human MET on cells (human, UniProt P08581 25-1390); assay: cell-based or functional assay
[3] = biological target: T1, human MET (exon14 skip mutation) on …; assay: cell-based or functional assay; remark: listed apart in the source
human MET on cells [4] = biological target: T2, human MET on cells; assay: cell-based or functional assay; remark: listed apart in the source
human MET on cells [5] = biological target: T2, human MET on cells; assay: cell-based or functional assay; remark: listed apart in the source
human MET on cells [6] = biological target: T2, human MET on cells; assay: cell-based or functional assay; remark: listed apart in the source
human MET on cells [7] = biological target: T2, human MET on cells; assay: cell-based or functional assay; remark: listed apart in the source
human MET on cells [8] = biological target: T2, human MET on cells; assay: cell-based or functional assay; remark: listed apart in the source
human MET on cells [9] = biological target: T2, human MET on cells; assay: flow cytometry, 10 µg/ml antibody on EBC-1 cells, Alexa647 anti-human secondary
Experimental: (§1) After one additional wash with FACS buffer, samples were fixed with Cytofix (BD Biosciences, #554655), filtered with FACS buffer and run on an iQue flow cytometer (Intelicyte). Mean fluorescence intensity (MFI) data was determined using FlowJo software (FlowJo LLC).

human MET on cells [10] = biological target: T2, human MET on cells; assay: flow cytometry, 10 µg/ml antibody on SNU-5 cells, Alexa647 anti-human secondary
Experimental: as §1

human MET on cells [11] = biological target: T2, human MET on cells; assay: flow cytometry, 10 µg/ml antibody on Hs746t cells, Alexa647 anti-human secondary
Experimental: as §1

human MET on cells [12] = biological target: T2, human MET on cells; assay: flow cytometry, 10 µg/ml antibody on A549 cells, Alexa647 anti-human secondary
Experimental: as §1

human MET on cells [13] = biological target: T2, human MET on cells; assay: flow cytometry, 10 µg/ml antibody on MKN-45 cells, Alexa647 anti-human secondary
Experimental: as §1

human MET on cells [14] = biological target: T2, human MET on cells; assay: flow cytometry, 10 µg/ml antibody on U87MG cells, Alexa647 anti-human secondary
Experimental: as §1

human MET on cells [15] = biological target: T2, human MET on cells; assay: flow cytometry, 10 µg/ml antibody on MDA-MB-231 cells, Alexa647 anti-human secondary
Experimental: as §1

[16] = biological target: T3, hMet.mmh (human MET extracellular domain with C-terminal myc-myc-hexahistidine tag) (human, UniProt P08581 309-914; P08581 27-307); assay: SPR 37C, antibody captured
T3 construct: soluble monomeric MET; also called monomeric human MET
T3 sequence (P08581 other isoform, or with tags, fused parts or gaps limits assumed, chain 1 of 2): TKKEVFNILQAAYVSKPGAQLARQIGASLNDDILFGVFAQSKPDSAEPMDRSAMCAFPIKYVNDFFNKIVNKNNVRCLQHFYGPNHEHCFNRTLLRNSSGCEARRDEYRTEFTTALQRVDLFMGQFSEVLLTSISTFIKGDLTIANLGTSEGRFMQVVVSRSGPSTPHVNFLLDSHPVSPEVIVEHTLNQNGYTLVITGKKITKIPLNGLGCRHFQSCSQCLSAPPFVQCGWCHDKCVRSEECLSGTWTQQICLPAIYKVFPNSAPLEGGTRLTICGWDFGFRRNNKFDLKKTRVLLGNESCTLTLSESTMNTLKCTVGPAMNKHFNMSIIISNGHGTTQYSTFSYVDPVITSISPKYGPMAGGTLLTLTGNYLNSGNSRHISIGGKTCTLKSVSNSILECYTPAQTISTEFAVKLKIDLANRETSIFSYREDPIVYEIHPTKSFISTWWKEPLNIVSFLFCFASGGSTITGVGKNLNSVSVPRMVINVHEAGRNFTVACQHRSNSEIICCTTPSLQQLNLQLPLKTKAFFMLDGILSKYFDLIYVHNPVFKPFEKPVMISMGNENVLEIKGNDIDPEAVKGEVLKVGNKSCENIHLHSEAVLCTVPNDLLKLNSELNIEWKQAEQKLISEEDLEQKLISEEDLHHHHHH
T3 sequence (P08581 27-307 limits assumed, chain 2 of 2): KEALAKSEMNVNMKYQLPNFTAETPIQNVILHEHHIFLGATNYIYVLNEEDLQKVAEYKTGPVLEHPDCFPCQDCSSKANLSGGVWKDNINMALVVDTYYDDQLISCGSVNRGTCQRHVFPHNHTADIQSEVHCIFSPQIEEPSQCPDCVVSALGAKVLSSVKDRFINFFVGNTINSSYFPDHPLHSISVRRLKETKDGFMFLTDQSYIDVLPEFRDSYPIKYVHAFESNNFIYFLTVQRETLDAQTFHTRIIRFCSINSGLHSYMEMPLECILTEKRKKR
Experimental: (§2) The anti-Met antibodies tested in this example were bivalent monospecific binders of MET.
(§3) Kinetic association (kₐ) and dissociation (kd) rate constants were determined by fitting the real-time sensorgrams to a 1:1 binding model using Scrubber 2.0c curve fitting software. Binding dissociation equilibrium constant (KD) and dissociative half-life (t1/2) were calculated from the kinetic rate constants as: […]

[17] = biological target: T4, hMET.mFc (dimeric human MET) (human, UniProt P08581 27-307); assay: SPR 37C, antibody captured
T4 construct: soluble dimeric MET protein
T4 sequence (P08581 other isoform, or with tags, fused parts or gaps limits assumed, chain 1 of 2): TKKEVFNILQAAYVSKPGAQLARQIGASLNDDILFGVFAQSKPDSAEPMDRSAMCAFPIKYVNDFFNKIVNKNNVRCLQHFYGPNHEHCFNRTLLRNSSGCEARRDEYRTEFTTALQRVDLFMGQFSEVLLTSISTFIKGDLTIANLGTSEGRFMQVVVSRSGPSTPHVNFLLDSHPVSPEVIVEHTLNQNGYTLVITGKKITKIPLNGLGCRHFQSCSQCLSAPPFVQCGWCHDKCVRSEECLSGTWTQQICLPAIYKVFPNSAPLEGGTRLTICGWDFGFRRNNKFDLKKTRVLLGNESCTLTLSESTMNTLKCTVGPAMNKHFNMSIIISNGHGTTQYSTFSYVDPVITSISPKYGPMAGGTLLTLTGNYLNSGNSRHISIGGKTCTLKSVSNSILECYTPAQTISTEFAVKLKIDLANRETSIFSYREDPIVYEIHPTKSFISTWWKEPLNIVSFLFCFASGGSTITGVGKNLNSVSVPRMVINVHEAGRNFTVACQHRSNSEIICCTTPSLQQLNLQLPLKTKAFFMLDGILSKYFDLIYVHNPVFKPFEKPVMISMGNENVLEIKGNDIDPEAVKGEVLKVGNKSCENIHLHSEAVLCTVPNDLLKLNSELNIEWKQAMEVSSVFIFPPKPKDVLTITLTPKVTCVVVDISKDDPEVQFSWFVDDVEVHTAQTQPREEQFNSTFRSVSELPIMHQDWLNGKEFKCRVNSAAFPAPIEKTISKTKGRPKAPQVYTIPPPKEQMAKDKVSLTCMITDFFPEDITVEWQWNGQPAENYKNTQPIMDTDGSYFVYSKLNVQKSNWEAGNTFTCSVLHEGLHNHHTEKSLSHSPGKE
T4 sequence (P08581 27-307 limits assumed, chain 2 of 2): as the sequence (P08581 27-307 limits assumed, chain 2 of 2) above
Experimental: as §2, §3

[18] = biological target: T5, MET (c-Met, hepatocyte growth factor receptor) on cells (human, UniProt P08581 25-1390); assay: cell-based or functional assay
T5 sequence (P08581 25-1390 limits assumed, form in doubt): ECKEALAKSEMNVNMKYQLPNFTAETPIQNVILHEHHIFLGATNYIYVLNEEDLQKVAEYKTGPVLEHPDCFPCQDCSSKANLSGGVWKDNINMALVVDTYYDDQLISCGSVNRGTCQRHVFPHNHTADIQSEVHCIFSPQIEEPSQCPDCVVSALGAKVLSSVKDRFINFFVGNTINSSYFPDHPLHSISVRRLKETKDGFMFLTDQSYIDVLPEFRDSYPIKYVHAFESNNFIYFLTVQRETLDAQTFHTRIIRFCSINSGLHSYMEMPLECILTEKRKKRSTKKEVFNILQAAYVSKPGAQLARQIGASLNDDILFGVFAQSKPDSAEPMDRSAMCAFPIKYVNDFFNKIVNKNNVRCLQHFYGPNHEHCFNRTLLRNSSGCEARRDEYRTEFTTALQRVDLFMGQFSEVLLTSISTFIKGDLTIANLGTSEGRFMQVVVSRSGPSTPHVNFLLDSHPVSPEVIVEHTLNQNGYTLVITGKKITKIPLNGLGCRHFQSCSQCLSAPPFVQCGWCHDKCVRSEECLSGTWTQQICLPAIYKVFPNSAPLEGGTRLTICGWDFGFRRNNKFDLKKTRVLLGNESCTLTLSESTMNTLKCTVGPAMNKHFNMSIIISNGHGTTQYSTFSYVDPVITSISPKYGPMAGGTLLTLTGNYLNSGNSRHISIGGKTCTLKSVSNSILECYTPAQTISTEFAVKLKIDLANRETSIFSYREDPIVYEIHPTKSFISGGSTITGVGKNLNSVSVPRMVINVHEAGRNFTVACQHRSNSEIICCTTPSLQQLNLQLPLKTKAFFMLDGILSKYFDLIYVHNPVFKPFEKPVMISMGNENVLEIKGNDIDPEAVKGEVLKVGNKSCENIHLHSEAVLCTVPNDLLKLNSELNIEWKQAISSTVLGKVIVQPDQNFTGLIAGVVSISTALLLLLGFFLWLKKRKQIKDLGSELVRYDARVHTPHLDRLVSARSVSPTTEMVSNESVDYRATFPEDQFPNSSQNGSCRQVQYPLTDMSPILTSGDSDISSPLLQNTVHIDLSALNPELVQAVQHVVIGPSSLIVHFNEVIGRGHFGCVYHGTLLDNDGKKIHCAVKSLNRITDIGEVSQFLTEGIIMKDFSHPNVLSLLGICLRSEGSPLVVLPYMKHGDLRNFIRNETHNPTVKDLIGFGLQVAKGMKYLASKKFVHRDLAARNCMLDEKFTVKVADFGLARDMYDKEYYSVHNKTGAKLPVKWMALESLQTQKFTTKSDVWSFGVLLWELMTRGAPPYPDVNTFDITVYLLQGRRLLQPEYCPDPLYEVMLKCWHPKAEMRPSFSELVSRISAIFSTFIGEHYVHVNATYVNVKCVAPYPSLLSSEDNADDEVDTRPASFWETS

[19] = biological target: T5, MET (c-Met, hepatocyte growth factor …); assay: cell-based or functional assay; remark: listed apart in the source
[20] = biological target: T3, hMet.mmh (human MET extracellular …); assay: SPR 37C, antibody captured; remark: listed apart in the source
Experimental: Kinetic association (kₐ) and dissociation (kd) rate constants were determined as described in Example 3.

T2 sequence (P08581 25-1390 limits assumed, form in doubt): as above

B1: H4H14639D (bispecific antibody, human IgG4, V domains shown)
VH 1: EVQLVESGGGLVQPGTSLRLSCAASGFTFDDYAMHWVRQAPGKGLEWVSGITWNSYNIDYADSVKGRFTISRDNAKNSLYLQMNSLRAEDTALYYCAKDDDYSNYVYFDYWGQGTLVTVSS
VH 2: EVQLVESGGGLVQPGGSLRLSCAASGFIVTTNYMTWLRQAPGKGLEWVSLIYSSGHTYYADSVKGRFTISRHNSKNTLYLQMDSLRAEDTAVYYCASAFAADVFDIWGQGTMVTVSS
VL: not shown
notes: MET x MET bispecific, human IgG4; also called No. 122; MET×MET bispecific antibody
Q: How did the “Relative Cell Growth (n = 3), NCI-H596 cells in soft agar, 5 µg/ml, two weeks” value [1] turn out when B1 was run?
A: 1.07 normalized to control

Q: What about the “Relative Cell Growth (n = 3), Hs746T cells, 5 µg/ml, 5 days” value (human MET on cells [2]) of the same binder?
A: 0.647 normalized to control

Q: What about the “Relative MET Level, NCI-H596 cells, 18 h” value [3] of the same binder?
A: 0.24 relative to control (hFc)

Q: What about the “Relative Cell Growth (n = 3), EBC-1 cells, 0.1 µg/mL H4H14639D” value (human MET on cells [4]) of the same binder?
A: 0.397 relative to control

Q: What about the “Relative Cell Growth (n = 3), EBC-1 cells, 1 µg/mL H4H14639D” value (human MET on cells [4]) of the same binder?
A: 0.462 relative to control

Q: And the “IC50, 6-day in vitro cytotoxicity, A549” value (human MET on cells [5])?
A: 0.17 nM

Q: What about the “IC50, 6-day in vitro cytotoxicity, EBC-1” value (human MET on cells [5]) of the same binder?
A: 0.37 nM

Q: What about the “IC50, 6-day in vitro cytotoxicity, Hs746t” value (human MET on cells [5]) of the same binder?
A: 0.44 nM

Q: And the “Max % Kill, 6-day in vitro cytotoxicity, A549” value (human MET on cells [5])?
A: 29%

Q: What about the “Max % Kill, 6-day in vitro cytotoxicity, EBC-1” value (human MET on cells [5]) of the same binder?
A: 66%

Q: And the “Max % Kill, 6-day in vitro cytotoxicity, Hs746t” value (human MET on cells [5])?
A: 35%

Q: What about the “Relative Cell Growth (n = 3), SNU5 cells, 5 µg/ml, 5 days” value (human MET on cells [6]) of the same binder?
A: 0.271 normalized to control

B2: H4H14635D (bispecific antibody, human IgG4, V domains shown)
VH 1: QVQLVESGGGVVQPGRSLRVSCVVSGFTFSSFGMHWVRQAPDKGLEWVAVIWYDGSNDYYSDSVKGRFTISRDNSKNTLFLQMNRLRAEDTAVYYCARANNWNRFDAFDLWGQGTMVTVSS
VH 2: EVQLVESGGGLVQPGGSLRLSCAASGFIVTTNYMTWLRQAPGKGLEWVSLIYSSGHTYYADSVKGRFTISRHNSKNTLYLQMDSLRAEDTAVYYCASAFAADVFDIWGQGTMVTVSS
VL: not shown
notes: MET x MET bispecific, human IgG4; also called No. 42
Q: For B2, which “Relative MET Level, SNU5 cells, 18 hrs” value (human MET on cells [7]) is on record?
A: 0.27 relative to control (hFc)

Q: What about the “% Inhibition, HEK293/SRE-Luc Blocking Activity (HGF, 1 h mAb pre-bind)” value (human MET on cells [8]) of the same binder?
A: 85%

Q: What about the “EC50, Ligand (HGF)-Independent HEK293/SRE-Luc Activation” value (human MET on cells [8]) of the same binder?
A: 1.4 nM

Q: What about the “Fold Response, Ligand (HGF)-Independent HEK293/SRE-Luc Activation” value (human MET on cells [8]) of the same binder?
A: 2.2 fold

Q: And the “IC50, HEK293/SRE-Luc Blocking Activity (HGF, 1 h mAb pre-bind)” value (human MET on cells [8])?
A: 0.19 nM

Q: And the “FACS Binding (MFI Fold Above Isotype Control)” value (human MET on cells [9])?
A: 263 fold above isotype control

Q: And the “FACS Binding (MFI Fold Above Isotype Control)” value (human MET on cells [10])?
A: 477 fold above isotype control

Q: And the “FACS Binding (MFI Fold Above Isotype Control)” value (human MET on cells [11])?
A: 39 fold above isotype control

Q: And the “FACS Binding (MFI Fold Above Isotype Control)” value (human MET on cells [12])?
A: 12 fold above isotype control

Q: What about the “FACS Binding (MFI Fold Above Isotype Control)” value (human MET on cells [13]) of the same binder?
A: 183 fold above isotype control

Q: And the “IC50, 6-day in vitro cytotoxicity, A549” value (human MET on cells [5])?
A: > 100 nM

Q: What about the “IC50, 6-day in vitro cytotoxicity, EBC-1” value (human MET on cells [5]) of the same binder?
A: > 100 nM

Q: What about the “IC50, 6-day in vitro cytotoxicity, Hs746t” value (human MET on cells [5]) of the same binder?
A: > 100 nM

Q: And the “Max % Kill, 6-day in vitro cytotoxicity, A549” value (human MET on cells [5])?
A: 0%

Q: What about the “Max % Kill, 6-day in vitro cytotoxicity, EBC-1” value (human MET on cells [5]) of the same binder?
A: 11%

Q: What about the “Max % Kill, 6-day in vitro cytotoxicity, Hs746t” value (human MET on cells [5]) of the same binder?
A: 7%

Q: What about the “FACS Binding (MFI Fold Above Isotype Control)” value (human MET on cells [14]) of the same binder?
A: 18 fold above isotype control

Q: And the “FACS Binding (MFI Fold Above Isotype Control)” value (human MET on cells [15])?
A: 11 fold above isotype control

B3: H4H13312P2 (antibody, human IgG4, V domains shown)
VH: EVQLVESGGGLVQPGGSLRLSCAASGFIVTTNYMTWLRQAPGKGLEWVSLIYSSGHTYYADSVKGRFTISRHNSKNTLYLQMDSLRAEDTAVYYCASAFAADVFDIWGQGTMVTVSS
VL: not shown
notes: human IgG4 Fc (H4H), bivalent monospecific; also called parental antibody 2; M2
Q: How did the Kd [16] turn out when B3 was run?
A: 227 nM

Q: And the T½ [16]?
A: 0.7 min

Q: And the Kd [17]?
A: 2.79 nM

Q: What about the T½ [17] of the same binder?
A: 6.7 min

Q: What about the “IC50 (read off the curve); blocking of HGF-dependent SRE-driven luciferase signal in HEK293T cells” value [18] of the same binder?
A: ~0.4 nM

Q: And the “EC50 (read off the curve); HGF-independent SRE-driven luciferase signal in HEK293T cells” value [19]?
A: ~0.5 nM

Q: And the T½ [20]?
A: 1.4 min
